Experimental data from patent publication US20230176070A1.

target: glutathione S-transferase [GST: P08515]; test: indirect ELISA, GST coated
Sequence (P08515 whole entry): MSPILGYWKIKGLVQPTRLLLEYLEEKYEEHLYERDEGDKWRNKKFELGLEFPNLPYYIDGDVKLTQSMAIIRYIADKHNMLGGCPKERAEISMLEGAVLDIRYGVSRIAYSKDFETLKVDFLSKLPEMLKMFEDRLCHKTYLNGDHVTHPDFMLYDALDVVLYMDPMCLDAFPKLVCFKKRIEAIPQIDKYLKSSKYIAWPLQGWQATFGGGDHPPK

Binder | ELISA affinity (LogIC50 (oD450nm))
G44 (VHH) VHH: DVQLVESGGGLVQAGGSLRLSCVASGPIFSFSTGGWYRQAPGKQRELVAALTGGGNTNYADSVKGRFTISRDNAKNTVYLQMNLLKPEDTAVYYCQVMYYSGYDGYESTSWGQGTQVTVSS | 3.06
G42 (VHH) VHH: HVQLVESGGGFVQAGGSLRLSCEASGRTFNVYTMGWFRQAPGKEREFVGSISWNGGSTYYADSVKGRFTISRDNAKNTVYLQMNSLEPEDTAVYYCAARRQSHLRLDLSVIDAWGKGTQVTVSS | 2.63
G16 (VHH) VHH: EVQLVESGGGLVQPGGSLRLSCAASGSTFSINAIGWYRQAPGKEREFVAALRWPGNIWYYADFVEGRITISRDNAKNTVYLQMNSLKPEDTAVYYCAARPENRGSYRDAATYDFWGQGTQVTVSS | 5.68
G41 (VHH) VHH: DVQLVESGGGLVQAGGSLRLSCVASGHTVSNYAMAWFRQAPGKEREFVAGISWRASITYYRDSVKGRFTISRDNAKNTVYLQMSSLKPEDTAVYYCASDKTHYVSRGTSLVEYDYWGQGTQVTVSS | 1.02
G39 (VHH) VHH: HVQLVESGGELVQSGSSLRLSCAASGFDLDDYAIGWFRQAPGKEREGVSCTSTSDGPTSYLDSVKGRFTFSRDNAKNTLYLQMNSLKPEDTAVYYCAAISHIFAEDAPAMGLCWDQRSAFWYWGQGTQVTVSS | 1.65
G12 (VHH) VHH: QVQLVESGGGLVQAGGSLRLSCAASRSTFRINAAGWYRQAPGKERELVARISSGGSTNYADSVKGRFTISRDNAKNTVYLQMNSLKPEDTAVYYCNVPYYREDGYEYDAWGQGTQVTVSS | 4.21
G49 (VHH) VHH: EVQLVESGGGLVQAGGSLRLSCAASRSTFSINAAGWYRQAPGKQRELVAAISSGGSANYADSVKGRFIISRDNAKNTVYLQMNSLKPEDTAVYYCRVPYYRDDGYEYYSWGQGTQVTVSS | 5.54
G45 (VHH) VHH: EVQLVESGGGLVQPGGSLRLSCAASGSIFSINSMGWYRQAPGKQRELVAAITSGGSTNYANSVKGRFTISRNNARNTVWLQMNSLKPEDTAVYYCNADLNVVRGYSGDYHGSSDYWGQGTQVTVSS | 3.17
G23 (VHH) VHH: QVQLVESGGGLVQPGGSLRLSCAASGFTFSVNTMSWVRQAPGKGREWVSGIESHGNTYYSDSVKGRFTISRDNAKNTLYLQMNSLKPEDTAVYYCATGIYGTTRNWGQGTQVTVSS | 2.54
G30 (VHH) VHH: QVQLVESGGGLVQAGGSLRLSCAASGRTINNYDMGWFRQAPGKEREFVAAITWSGRDTNYADSVKGRFTVSRDDAKNTVYLQMNTLSPEDTAVYYCASARIQFYRLVAATRTDYSYWGQGTQVTVSS | 4.86
G43 (VHH) VHH: EVQLVESGGGLVQAGGSLRLSCATSGRTSSTYAMGWFRQRPGKEREFVATIHWGVGSTIYADSVKGRFTLSRDNAQNTVYLQMNSLKPEDTAVYYCAASTYRIGSYDVSTSQGYNYWGQGTQVTVSS | 4.32
G27 (VHH) VHH: DVQLVESGGDLVQAGGSLRLSCSASGNIFKINDMDWYRQAPGKQRELVARISSSGSTNYADSVKGRFTISRDNGKNTVYLQMNRVKPEDTAVYYCNADVQVSRNYEYEYWGQGTQVTVSS | 1.36
G37 (VHH) VHH: EVQLVESGGGLVQAGDSLRLSCVASGDTFTSYTVGWFRQAPGKEQEFVAGISWSGRSTDYADFVKGRATISKDIAKVSLQMNALKPEDTAVYSCAAKKVDWSSDYVTNYDYDYRGRGTQVTVSS | 1.78
G14 (VHH) VHH: EVQLVESGGGLVQAGGSLRLSCAASGSTFDTNPIGWYRQAPGKQRDLVAMITSGGHTNYADSVKGRFTISRDNAKNTVYLQMNSLKPEDTAVYYCTVPHYREDGYEYHFWGQGTQVTVSS | 5.27
G15 (VHH) VHH: QVQLVESGGGLVQAGGSLRLSCAASGSTFDTNPIGWYRQAPGKQRDLVAMITSGGHTNYADSVKGRFTISRDNAKNTVYLQMNSLKPEDTAVYYCTVPHYREDGYEYHCWGQGTQVTVSS | 4.61
G19 (VHH) VHH: QVQLVESGGGLVQAGGSLRLSCAASGSTFSTNAVDWYRQAPGNQRDLVATITSGGHTNYADSVKGRFTISRDNAKNTVYLQMNSLKPEDTAVYYCAVPHYREDGYEYRFWGQGTQVTVSS | 9
G25 (VHH) VHH: EVQLVESGGGLVQAGGSLRLSCAASGRTFSGRTFSDYPMAWFRQAPGKEREFLATISTSGSRTYYADSVKGRFTISRDNAKDTVYLQMNSLKPEDAAIYYCAARQGSYYSDYNRALPGEYDYWGQGTQVTVSS | 1.57
G20 (VHH) VHH: DVQLVESGGGLVQAGGSLRLSCAASERTFSRYMLGWFRQAPGKEREFVGVMGWSDSDTYYGDAVKGRFTISRDNVKNTIYLQMKSLKPEDTAVYYCAASAYGSTRNHKLYEYWGQGTQVTVSS | 2.43

Results, then the binder that gave them:

ELISA affinity (LogIC50 (oD450nm)) | Binder
1.07 | G68 (VHH) VHH: EVQLVESGGGLVQAGGSLRLSCTASGSIFSVNVMDWYRQAPGKQREFVATITGSGATNYADSVKGRFTISRGSAKNTVYLQMNSLKPDDTAVYYCHNADYREDGYEYDNWGQGTQVTVSS
1.54 | G54 (VHH) VHH: QVQLVESGGGLVKPGESLKLSCVASGETLSSYIMGWFRQAPGKEREFVAAVSWSGNQQDYADSVKGRFTISRDNAEKTVDLQMNSLNPEDTAVYYCAGDQIGFWSSRTQAHEYEYWGQGTQVTVSS
1.54 | G58 (VHH) VHH: EVQLVESGGGLVQAGGSLRLSCAGSGDTFSRYTLGWFRQAPGKEREFVAGISWSGGSTSYANSVKGRFTISRDNAKNTMYLQMNSLKPEDTAVYTCAAPGLPGTVVVGASDFYVYWGQGTQVTVSS
1.09 | G50 (VHH) VHH: EVQLVESGGGLVQAGGSLRLSCAASGRTFSRYHMGWFRQAPGKERDVVAAISWSGDSTYYADSVKGRFTISKDNAKNTVYLQMDSLKPEDTAVYYCATLSGWDGDTIFPAGSWGQGTQVTVSS
5.37 | G53 (VHH) VHH: HVQLVESGGGLVQAGGSLRLSCVASGFTYSTYTMGWFRQAPGKEREIVAAKNWSGARIYYTESVKGRFTISRDSGSNTMYLQMDSLKPEDTAVYYCAARLTWTDTTTPTTYPYWGQGTQVTVSS
1.75 | G70 (VHH) VHH: QVQLVESGGGLVQAGGSLRLSCAASGATFSINAIGWYRQAPGKQRELVAVIKSGNSINYADSVKGRFTISRDHAKNTVYLQMNNLKPEDTAVYYCHADQPPETGWGTWNDLWGQGTQVTVSS
0.955 | G73 (VHH) VHH: EVQLVESGGGLVQAGGSLRLSCAASGRTFSDDAMAWFRQAPGKEREFVAAISWHPENTFYADSVKGRFTISRDKTKNTEYLQMNSLKPEDTAVYYCAAGPRLEIGDYAQYKYWGQGTQVTVSS
3.6 | G67 (VHH) VHH: HVQLVESGGGLVQAGGSLRLSCVASGHTVSNYAMAWFRQAPGKEREFVAGISWRATLTYYRDSVKGRFTISRDNAKNTVYLQMSSLKPEDTAVYFCASDRTPYVSRGTSLVEYDYWGQGTQVTVSS
5.68 | G64 (VHH) VHH: HVQLVESGGGLVQAGGSLRLSCKVSGTTFSNSAIGWYRQAPGNRRELVATINYGGSTNYADSGKGRFTISKDNAKNTVYLQMNSLKPEDTAVYYCKTTEWREDGYEYDVWGQGTQVTVSS
6.01 | G77 (VHH) VHH: QVQLVESGGGLVQAGGSLRLSCTASRSTFRVNPAGWYRQAPGKERELVARITSGGSTNYADSVKGRFTISRDNAKNTVYLQMNSLKPEDTAVYYCNVPYYMEDGYEHDAWGQGTQVTVSS
4.45 | G51 (VHH) VHH: QVQLVESGGGLVQAGGSLKLSCAASGITFSINTIGWYRQAPGKQREFVAHITSDSTTYYADSVKARFTISRDSAKNTVHLQMNNLKPEDTAVYYCNVNPTWPYGGEVDYWGQGTQVTVSS
3.69 | G69 (VHH) VHH: QVQLVESGGGLVQAGGSLRLSCVDSGRTFSSNTMGWFRQAPGKDRDFVAAINRSGVITNYADSVKGRFTISRDNAKNTVYLQLNSLKPEDTAVYYCAARAGGWPSQIPVEYDRWGQGTQVTVSS
4.29 | G66 (VHH) VHH: QVQLVESGGGLVQAGGSLRLSCATSGRTFSTYAMGWFRQRPGKEREFVATIHWSDGRTLYTDSVKGRFTLSRDNAQNTVYLQMNSLKPEDTAVYYCAAATYRIGSYDVSTSQGYNYWGQGTQVTVSS
3.97 | G65 (VHH) VHH: QVQLVESGGGLVQAGGSLRLSCATSGRTFSTYALGWFRQRPGKEREFVATIHWSDGRTLYADSVKGRFTLSRDNAQNTVYLQMNSLKPEDTAIYYCAASIYRIGSYDVSTSQGYDYWGQGTQVTVSS
1 | G52 (VHH) VHH: EVQLVESGGGLVQAGGSLRLSCAASGSTFSSKPIGWYRQAPGKGRDLVAAIGGGSSTFYVDSVKGRFTMSRDNAKNTVALQMNSLKPEDTAVYYCNEYLGPKVLPIGSWGQGTQVTVSS
